B1: CLTA (ssRNA)
RNA: GUUGUUUGUGAUUGCAUGUUUCCUUCCUUCAACUGUGUUCUCCCUGGCAUU
B2: CLTC (ssRNA)
RNA: GUCUUGUGUGUGUUUACUAACCCUUCCCUGAGGUUUGUGUAUGUUGGAUAUUGUGGUGUUUUAG

Molecular target: T1, PURA (Pur-alpha) (Homo sapiens, UniProt Q00577 1-322)
T1 sequence: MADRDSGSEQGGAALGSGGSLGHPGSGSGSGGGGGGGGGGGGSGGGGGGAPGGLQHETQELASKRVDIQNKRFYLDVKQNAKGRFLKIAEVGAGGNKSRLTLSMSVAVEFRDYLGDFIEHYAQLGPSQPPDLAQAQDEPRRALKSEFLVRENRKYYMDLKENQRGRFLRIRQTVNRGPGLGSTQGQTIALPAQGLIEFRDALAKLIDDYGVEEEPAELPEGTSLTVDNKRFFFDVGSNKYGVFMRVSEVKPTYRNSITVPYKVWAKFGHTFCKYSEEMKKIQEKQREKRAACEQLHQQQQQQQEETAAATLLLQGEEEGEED
Test: EMSA; 100 ug/ml yeast tRNA; 250 mM NaCl, 20 mM HEPES pH 8.0, 3 mM MgCl2, 4% glycerol, 2 mM DTT, 100 ug/ml yeast tRNA, 2.5 nM RNA, 20 min RT; 6% TBE gel
Settings: protein: recombinant; tags: GST-PURA (pOPIN-J); GST removed with 3C protease; chain copies: 2; label: 5' 32P

Binder | binding result
B1 | binds
B2 | binds
